Reference: US20110229556A1, “LIPID-COATED POLYMER PARTICLES FOR IMMUNE STIMULATION” (Massachusetts Institute of Technology, priority 2010, published 2011)
“Also recorded” adds a separate entry of the source.

Key:
OVA-specific serum IgG = assay: Serum total anti-OVA IgG ELISA after s.c. immunization; type: in vivo, BALB/c or C57B1/6 mice
Method: Antibody titer measurements. Total IgG titers from sera were measured using an ELISA by adsorbing OVA to flat-bottom transparent 96-well plates at room temperature overnight, blocking overnight with bovine serum albumin, adding serially-diluted serum (starting from a minimal dilution of 200×) for 2 hr, and then detecting bound OVA-specific IgG antibody using HRP-labeled anti-mouse IgG (Bio-Rad). Plates were washed between each step using 0.05% Tween-20 in PBS. HRP developed with tetramethylbenzidine was measured using a Molecular Devices SpectraMax Microplate Reader. Monoclonal mouse anti-OVA IgG1 (clone OVA-14, Sigma-Aldrich, St. Louis, Mo.) was included as a standard reference in each assay. Endpoint titers were defined as the highest dilution at which immunized serum ELISA signal exceeded the average+2 standard deviations of pre-immune sera analyzed in parallel. To interpret our titer values in more physiological terms, we used OVA-14 as a standard to determine the concentration of OVA-specific IgG as equivalents of this monoclonal antibody.

OVA-specific IgG = assay: Avidity of OVA-specific IgG (ELISA with 6M urea wash); type: in vivo, BALB/c mice; settings: BALB/c, 10 ng OVA, boost day 21, day 28 sera, 6M urea 10 min
Method: The avidity of IgG responses to immunization was measured using an ELISA analysis of serum binding in the presence of urea using a commonly reported procedure from the literature. Serum titer analysis was conducted in duplicate assay plates until serum adsorption was complete. At this point, one plate was incubated in the presence of 6M urea for 10 min followed by washing and detection of bound IgG on both plates as above. Avidity indices were defined as the serum dilution of urea-treated samples where the ELISA absorbance was 0.5 divided by the dilution of untreated samples giving the same absorbance.

[1] = tested on: naïve OT-I (CD8+) T-cells; assay: Priming of naïve OT-I T-cells by particle-pulsed splenic DCs (CFSE dilution); type: cell-based, mice; settings: DCs pulsed with 10,000-fold higher doses of soluble OVA than the particle dose, with or without MPLA; not shown
Method: Responses of naïve CD4^+ or CD8^+ T-cells transgenically expressing T cell receptors specific for OVA-derived peptides were assessed by in vitro co-culture of OT-II or OT-I primary T-cells with particle-pulsed DCs. Primary dendritic cells were isolated from spleens of C57B1/6 mice by digesting spleens with collagenase and isolating DCs using a CD11c^+ magnetic bead isolation kit (Miltenyi Biotec). In parallel, naïve CD4^+ T-cells or CD8+ T-cells were isolated from OT-II or OT-I TCR-transgenic mice, respectively (Jackson Laboratories), and labeled with CFSE to trace cell division following the manufacturer's instructions. OVA-loaded particles with post-inserted MPLA or soluble OVA/MPLA were added to splenic DCs (12,500 cells/well) at titrated cell:antigen ratios (starting from 40:1 particles:DC, corresponding to 6.2 μg particles), and incubated for 3 hr in a total volume of 150 μL/well at 37° C. and 5% CO2. CFSE-labeled OT-I or OT-II cells (50,000 cells/well) were then added to DCs in a volume of 50 μL complete RPMI media. This total culture volume of 200 μL/well was incubated for 3 days at 37° C. and 5% CO2 to allow proliferation of T-cells, and CFSE dilution was then measured by flow cytometry.

CCCCCCCCCCCCCCCCCCCCCCCCCC(=O)N[C@@H](CO[C@H]1O[C@H](CO)[C@H](O)[C@H](O)[C@H]1O)[C@H](O)[C@H](O)CCCCCCCCCCCCCC [αGC solution, α-galactosylceramide, reference compound]
IgG titers 14 days after a single immunization, αGC dose titration (OVA-specific serum IgG; BALB/c, 2 ng OVA on microparticles with 10 ng, 100 ng, or 1 μg αGC (on particles or in solution 10 min before at same site)): only a fraction of mice had detectable titers; also recorded: equally effective

B1: ovalbumin (protein, UniProt P01012 2-386, looked up)
Ovalbumin: GSIGAASMEFCFDVFKELKVHHANENIFYCPIAIMSALAMVYLGAKDSTRTQINKVVRFDKLPGFGDSIEAQCGTSVNVHSSLRDILNQITKPNDVYSFSLASRLYAEERYPILPEYLQCVKELYRGGLEPINFQTAADQARELINSWVESQTNGIIRNVLQPSSVDSQTAMVLVNAIVFKGLWEKAFKDEDTQAMPFRVTEQESKPVQMMYQIGLFRVASMASEKMKILELPFASGTMSMLVLLPDEVSGLEQLESIINFEKLTEWTSSNVMEERKIKVYLPRMKMEEKYNLTSVLMAMGITDVFSSSANLSGISSAESLKISQAVHAAHAEINEAGREVVGSAEAGVDAASVSEEFRADHPFLFCIKHIATNAVLFFGRCVSP
notes: model protein antigen ovalbumin dissolved in saline
anti-OVA IgG titers (OVA-specific serum IgG; BALB/c, 10 ng OVA s.c. prime, boost with same dose 3 weeks later, 1.3 μg MPLA and 600 ng αGC where used): only a subset of mice responded | time serum titers were maintained (OVA-specific serum IgG; BALB/c, 10 ng OVA s.c., boost 3 weeks later): not sustained in a majority of the mice | avidity: IgG binding following urea washes (OVA-specific IgG): no binding | OT-I proliferation [1]: minimal OT-I proliferation

B2: SAT(PEG)4-modified OVA: ovalbumin modified with the heterobifunctional cross-linker SAT(PEG)4 for particle coupling (protein, UniProt P01012 2-386, looked up)
Ovalbumin: GSIGAASMEFCFDVFKELKVHHANENIFYCPIAIMSALAMVYLGAKDSTRTQINKVVRFDKLPGFGDSIEAQCGTSVNVHSSLRDILNQITKPNDVYSFSLASRLYAEERYPILPEYLQCVKELYRGGLEPINFQTAADQARELINSWVESQTNGIIRNVLQPSSVDSQTAMVLVNAIVFKGLWEKAFKDEDTQAMPFRVTEQESKPVQMMYQIGLFRVASMASEKMKILELPFASGTMSMLVLLPDEVSGLEQLESIINFEKLTEWTSSNVMEERKIKVYLPRMKMEEKYNLTSVLMAMGITDVFSSSANLSGISSAESLKISQAVHAAHAEINEAGREVVGSAEAGVDAASVSEEFRADHPFLFCIKHIATNAVLFFGRCVSP
modifications: SAT(PEG)4 cross-linker modified
notes: ovalbumin modified with the heterobifunctional cross-linker SAT(PEG)4 for particle coupling
influence of SAT(PEG)4 modification on the protein's immunogenicity (OVA-specific serum IgG; data not shown): no significant influence
